We go through 1 molecule from US20250186580A1 (TRIDEM BIOSCIENCE, published 2025).

The test concerns the target Menveo, Neisseria meningitidis oligosaccharide (A, C, W135, Y) CRM197 conjugate vaccine, without β-glucan … (UniProt P00588 33-567). As to the kind of experiment: competitive ELISA, soluble murine Fc-dectin-1a on coated glucan.

B1: soluble murine Fc-dectin-1a receptor (InvivoGen) (Fc fusion)
chain: EYGHNSGRNPEEKDNFLSRNKENHKPTESSLDEKVAPSKASQTTGGFSQPCLPNWIMHGKSCYLFSFSGNSWYGSKRHCSQLGAHLLKIDNSKEFEFIESQTSSHRINAFWIGLSRNQSEGPWFWEDGSAFFPNSFQVRNTAPQESLLHNCVWIHGSEVYNQICNTSSYSICEKEL
B1: the binding result is reported as “no binding”.
